Results as given in patent US7396816B2, “Low-molecular weight peptides inhibiting ion channel activity” (Pharmadesign, Inc., priority 2003, dated 2008).
Where no end group is shown, it is not given here.

Tests used:
[1] = target: T1, Ca^2+ dependant BigK channel derived from heart muscle (myocardial SA channel) (Gallus gallus, UniProt Q8AYS8); test: single channel current recording by patch clamp (inside-out excised patch, back-fill); type: cell-based, chicken; details: for inhibition of wild-type SA channel: wild-type myocardial SA channel, FIG. 13; for inhibiting activity: primary screening, channel's open probability (Po); for level of inhibiting activity compared with GsMTx-4: suggested from time taken for inhibition
T1 construct: expressed in transfected cells; host or cells: CHO cells force-expressing the channel cDNA, or the endogenous channel of chicken ventricular muscle
T1 sequence (Q8AYS8 1-1195 isoform Q8AYS8-3): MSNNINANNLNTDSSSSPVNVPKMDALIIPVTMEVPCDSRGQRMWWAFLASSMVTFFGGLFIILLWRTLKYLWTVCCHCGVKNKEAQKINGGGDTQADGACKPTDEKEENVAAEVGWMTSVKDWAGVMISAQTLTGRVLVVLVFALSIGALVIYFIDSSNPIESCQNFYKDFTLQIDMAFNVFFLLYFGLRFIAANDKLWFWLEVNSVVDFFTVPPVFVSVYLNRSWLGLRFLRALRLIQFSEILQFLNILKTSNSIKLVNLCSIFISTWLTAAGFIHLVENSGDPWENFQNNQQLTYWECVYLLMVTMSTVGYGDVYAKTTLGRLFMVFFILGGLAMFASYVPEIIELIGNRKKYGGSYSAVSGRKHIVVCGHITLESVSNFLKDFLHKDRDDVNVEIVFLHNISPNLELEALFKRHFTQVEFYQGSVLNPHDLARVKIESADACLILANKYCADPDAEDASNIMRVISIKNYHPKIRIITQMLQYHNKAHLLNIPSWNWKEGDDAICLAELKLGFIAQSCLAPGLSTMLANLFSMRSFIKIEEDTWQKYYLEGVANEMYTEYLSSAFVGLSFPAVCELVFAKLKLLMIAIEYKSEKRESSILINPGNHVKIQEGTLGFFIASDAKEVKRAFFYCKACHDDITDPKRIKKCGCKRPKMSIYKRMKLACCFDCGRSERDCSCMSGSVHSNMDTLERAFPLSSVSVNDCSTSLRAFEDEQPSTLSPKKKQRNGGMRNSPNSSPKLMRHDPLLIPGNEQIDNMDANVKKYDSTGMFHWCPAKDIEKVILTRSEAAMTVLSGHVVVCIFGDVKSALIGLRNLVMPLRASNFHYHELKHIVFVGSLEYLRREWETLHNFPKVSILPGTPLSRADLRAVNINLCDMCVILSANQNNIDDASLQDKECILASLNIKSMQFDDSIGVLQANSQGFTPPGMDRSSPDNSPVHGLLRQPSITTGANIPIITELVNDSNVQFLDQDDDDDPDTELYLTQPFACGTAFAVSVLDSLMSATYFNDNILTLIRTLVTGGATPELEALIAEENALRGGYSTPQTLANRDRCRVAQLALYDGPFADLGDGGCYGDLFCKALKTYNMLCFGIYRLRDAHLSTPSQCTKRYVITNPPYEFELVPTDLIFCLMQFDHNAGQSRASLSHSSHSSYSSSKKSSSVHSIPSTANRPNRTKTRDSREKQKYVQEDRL
Procedure: Activity assay of the peptides was carried out by the most reliable single channel current recording method using the patch clamp method. As the subject of the assay, Ca^2+ dependant BigK channel (Kawakubo et. Am J Physiol, 276: H1827.1999) derived from heart muscle was employed. By applying this channel to the expressed ventricle muscle of chicken or to CHO cells force-expressing the cDNA of this channel with the cell-attached patch clamp method, an inside-out excised patch was formed, and single channel current recordings were taken under a fixed membrane potential. Assuming that the designed synthetic peptide blocks the channel extracellularly the same as GsMTx-4, the space a fixed distance above the glass pipette used for recording was filled with the peptide of a known concentration beforehand, and administration was carried out by back-fill which utilizes diffusion to reach the channel, With this method, the concentration of the peptide inside the pipette reaches equilibrium 15 to 20 minutes after the start of diffusion, and so the dissociation constant of the peptide can be estimated from the inhibition ratio at 20 minutes and onwards. Or, the relative inhibition of the peptide can be estimated from the time taken for inhibition. If the exact dissociation constant of the peptide is to be calculated, it is necessary to prepare an outside-out excised patch, take single channel current recordings, analyze the inhibition effects of various peptides with different concentration, and obtain a dose-inhibition curve; however, as this method requires special technology and as this is the primary screening of the various designed synthetic peptides, the assay method combining the inside-out excised patch and back-fill described above was used to make a rough estimate of the inhibition effects of the peptides. […] Concerning the scale of evaluation, the channel's open probability (Po, indicated in percentage) was used, and the level of inhibition was expressed by the inhibition ratio (percentage) with the control (prior to the administration of the peptide) as the standard, or by the time taken for inhibition.

STREX-deletion-mutant = target: T2, STREX-deletion-mutant (Gallus gallus, UniProt Q8AYS8, DEL657-715); test: single channel current recording, specificity to mechano-sensitive channel; type: cell-based; details: mutant lacking the 59 amino acid STREX sequence, FIG. 13
T2 construct: expressed in transfected cells; host or cells: CHO cells (inferred: a deletion mutant must be expressed heterologously, and CHO is the only expression host named for this channel)
T2 sequence (Q8AYS8 with tags, fused parts or gaps isoform Q8AYS8-3 DEL657-715): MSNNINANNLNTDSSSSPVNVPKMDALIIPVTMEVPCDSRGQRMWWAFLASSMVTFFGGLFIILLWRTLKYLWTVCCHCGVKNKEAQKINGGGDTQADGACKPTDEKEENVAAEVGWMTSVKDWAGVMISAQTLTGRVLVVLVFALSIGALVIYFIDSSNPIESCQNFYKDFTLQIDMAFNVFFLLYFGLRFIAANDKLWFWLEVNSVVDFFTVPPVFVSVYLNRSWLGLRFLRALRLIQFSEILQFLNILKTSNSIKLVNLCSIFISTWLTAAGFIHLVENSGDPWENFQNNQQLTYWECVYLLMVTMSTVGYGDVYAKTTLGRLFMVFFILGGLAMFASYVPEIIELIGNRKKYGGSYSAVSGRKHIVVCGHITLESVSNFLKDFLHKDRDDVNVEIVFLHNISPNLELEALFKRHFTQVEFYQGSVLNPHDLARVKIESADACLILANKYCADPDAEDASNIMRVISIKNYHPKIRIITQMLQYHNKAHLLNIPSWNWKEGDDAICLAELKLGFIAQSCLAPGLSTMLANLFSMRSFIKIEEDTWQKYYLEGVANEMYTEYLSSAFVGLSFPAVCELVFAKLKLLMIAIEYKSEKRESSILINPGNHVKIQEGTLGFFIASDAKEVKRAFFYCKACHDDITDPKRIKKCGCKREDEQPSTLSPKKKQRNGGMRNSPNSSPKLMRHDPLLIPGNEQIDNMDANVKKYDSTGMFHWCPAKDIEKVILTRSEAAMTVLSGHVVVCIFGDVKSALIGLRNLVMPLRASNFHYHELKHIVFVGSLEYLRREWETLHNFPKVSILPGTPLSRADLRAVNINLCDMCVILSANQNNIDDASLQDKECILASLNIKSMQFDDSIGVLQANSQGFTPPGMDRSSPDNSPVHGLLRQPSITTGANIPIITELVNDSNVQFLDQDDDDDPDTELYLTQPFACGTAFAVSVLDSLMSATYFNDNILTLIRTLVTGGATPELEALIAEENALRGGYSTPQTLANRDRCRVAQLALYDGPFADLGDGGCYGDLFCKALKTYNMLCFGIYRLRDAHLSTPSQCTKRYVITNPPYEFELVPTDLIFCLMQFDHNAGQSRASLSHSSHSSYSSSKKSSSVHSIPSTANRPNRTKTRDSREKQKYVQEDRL
Procedure: Activity assay of the peptides was carried out by the most reliable single channel current recording method using the patch clamp method. As the subject of the assay, Ca^2+ dependant BigK channel (Kawakubo et. Am J Physiol, 276: H1827.1999) derived from heart muscle was employed. By applying this channel to the expressed ventricle muscle of chicken or to CHO cells force-expressing the cDNA of this channel with the cell-attached patch clamp method, an inside-out excised patch was formed, and single channel current recordings were taken under a fixed membrane potential. […] If the exact dissociation constant of the peptide is to be calculated, it is necessary to prepare an outside-out excised patch, take single channel current recordings, analyze the inhibition effects of various peptides with different concentration, and obtain a dose-inhibition curve; however, as this method requires special technology and as this is the primary screening of the various designed synthetic peptides, the assay method combining the inside-out excised patch and back-fill described above was used to make a rough estimate of the inhibition effects of the peptides. […]

Row | Substance | inhibition of wild-type SA channel [1] | inhibition of STREX-deletion-mutant (STREX-deletion-mutant) | inhibition (channel's open probability Po vs control) ([1]; after 8 minutes) | inhibiting activity [1] | level of inhibiting activity compared with GsMTx-4 [1] | also measured
1 | GsMTx-4 (GCLEFWWKCNPNDDKCCRPKLKCSKLFKLCNFSSG; disulfide (positions not given here); ends not checked; listed as Grammostola spatulata) [reference compound] | inhibit the wild-type SA channel | do not inhibit the STREX-deletion-mutant hardly at all | – | – | – | –
2 | TVP004: designed peptide from GsMTx-4 comprising loop 3 (CARPKLKC) | – | – | about 60% | displayed inhibiting activity | – | inhibition (channel's open probability Po vs control) ([1]; 10 μM, after 16 minutes): 95%
3 | TVP005: designed peptide from GsMTx-4 comprising loops 2 and 3 (WKCNPNDDKAARPKLKC) | – | – | – | displayed inhibiting activity | – | inhibition (channel's open probability Po vs control) ([1]; after 20 minutes): about 60%
4 | TVP017: mutation in which the 3rd R from the N-terminus of TVP004 had been substituted by A (CAAPKLKC) | – | – | – | found to show inhibiting activity | higher level than | inhibition (channel's open probability Po vs control) ([1]; after 6 minutes): 100%; level of inhibition compared with TVP003 ([1]; time taken for inhibition): even higher level of inhibition than TVP003
5 | TVP019: mutation in which the 7th K from the N-terminus of TVP004 had been substituted by A (CARPKLAC) | – | – | – | found to show inhibiting activity | – | inhibition (channel's open probability Po vs control) ([1]; after 14 minutes): approximately 80%
6 | WKCNPNDDKC [TVP003] | inhibit the wild-type SA channel | do not inhibit the STREX-deletion-mutant hardly at all | 100% | displayed inhibiting activity | the same as or higher than | dissociation constant ([1]; estimated from inhibition ratio): μM order or lower
